Substitutions are numbered along the chain they refer to. “And” between values parts separate entries of the source, which are not always exact repeats. Equal entries are not always repeated. One block for each binder: values may come before it.
What was measured:
human IL-7 [1] = molecular target: T1, human IL-7 (human, UniProt P13232 26-177); test: SPR, Biacore 8K, 37 °C, IL-7 as analyte
T1 construct: also called hIL-7; rhIL-7
T1 sequence: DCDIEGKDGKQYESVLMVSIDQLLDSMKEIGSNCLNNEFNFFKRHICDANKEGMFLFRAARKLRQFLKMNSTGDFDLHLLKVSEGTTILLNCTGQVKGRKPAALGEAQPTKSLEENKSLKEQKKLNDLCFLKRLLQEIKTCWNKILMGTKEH
Excerpt: (§1) (Table 5). […] (Table 5).

cynomolgus monkey IL-7 [2] = molecular target: T2, cynomolgus monkey IL-7 (cynomolgus monkey, UniProt A0A2K5W745 26-178); test: SPR, Biacore 8K, 37 °C, IL-7 as analyte
T2 construct: also called cynoIL-7; cynomolgus IL-7
T2 sequence: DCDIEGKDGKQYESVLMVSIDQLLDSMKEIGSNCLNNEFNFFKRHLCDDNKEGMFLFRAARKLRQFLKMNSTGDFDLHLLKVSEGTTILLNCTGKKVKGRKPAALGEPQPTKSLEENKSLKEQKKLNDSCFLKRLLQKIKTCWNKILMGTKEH
Excerpt: as §1

human IL-7 [3] = molecular target: T1, human IL-7; test: SPR, Biacore 8K, 37 °C; geometric mean KD from all experiments, with 85% confidence interval in brackets
human IL-7 [4] = molecular target: T1, human IL-7; test: cell-based or functional assay
cynomolgus monkey IL-7 [5] = molecular target: T2, cynomolgus monkey IL-7; test: SPR, Biacore 8K, 37 °C (text value; Table 5 prints 73); 37 C; value of the running text
Excerpt: as §1

human IL-7 [6] = molecular target: T1, human IL-7; test: cell-based or functional assay; remark: listed apart in the source
human IL-7 [7] = molecular target: T1, human IL-7; test: SPR, Biacore 8K, 25 °C, IL-7 as analyte
Excerpt: as §1

cynomolgus monkey IL-7 [8] = molecular target: T2, cynomolgus monkey IL-7; test: SPR, Biacore 8K, 25 °C, IL-7 as analyte
Excerpt: as §1

B2: A1290 (antibody, human IgG1, kappa, V domains shown)
VH: QVQLVESGGGVVQPGRSLRLSCAASGFTFSSYGLHWVRQAPGKGLEWLAAIWTGGSTDYNAAFISRFTISRDNSKNTLYLQMNSLRAEDTAVYYCARNGYGESFAYWGQGTLVTVSS
VL: DIQMTQSPSSLSASVGDRVTITCKASQSVDDDGDSFINWYQQKPGKAPKLLIYVASNLESGVPARFSGSGSGTDFTLTISSLQPEDFATYYCQQSNEDPLTFGGGTKVEIKR
pSTAT5 in whole blood (CD4+ T cells), median IC50 (human IL-7 [4]): 18 pM and 0.00275 µg/ml

B3: A1291 (antibody, human IgG1, kappa, V domains shown)
VH: B2 VH with A62E, I64S
VL: B2 VL with Q27H, F36Y, I37M, V54M
pSTAT5 in whole blood (CD4+ T cells), median IC50 (human IL-7 [4]): 16 pM and 0.00246 µg/ml

Second part, the binder after the results:

Kd (human IL-7 [1]): 0.069 nM and 0.046 nM and 0.075 nM and 0.087 nM
koff (human IL-7 [1]): 0.000568 s⁻¹ and 0.000678 s⁻¹ and 0.000826 s⁻¹ and 0.000515 s⁻¹
kon (human IL-7 [1]): 8.28e+06 M⁻¹ s⁻¹ and 1.47e+07 M⁻¹ s⁻¹ and 1.1e+07 M⁻¹ s⁻¹ and 5.9e+06 M⁻¹ s⁻¹
Kd (cynomolgus monkey IL-7 [2]): 0.073 nM
koff (cynomolgus monkey IL-7 [2]): 0.000462 s⁻¹
kon (cynomolgus monkey IL-7 [2]): 6.17e+06 M⁻¹ s⁻¹
Kd (human IL-7 [3]): 0.0674 nM
IL-6 secretion by CD4+ Tmem cells, IC50 (human IL-7 [4]): 202 pM
IL-10 secretion by PBMC (rhIL-7 and anti-CD3), mean IC50 (human IL-7 [4]): 207 pM
TNFα secretion by CD4+ Tmem cells, IC50 (human IL-7 [4]): 127 pM
Kd (cynomolgus monkey IL-7 [5]): ~0.075 nM
IFN-γ production by PBMC, IC50 (IL-7 10 ng/ml, anti-CD3) (human IL-7 [6]): 196 pM and 29.4 ng/ml
IL-17 production by Tmem, IC50 (IL-7 20 ng/ml) (human IL-7 [6]): 40.5 ng/ml and 270 pM
Teff and Tmem proliferation (CD4+), IC50 (IL-7 10 ng/ml) (human IL-7 [6]): 79.5 ng/ml and 530 pM
Teff and Tmem proliferation (CD4+), IC50 (IL-7 20 ng/ml) (human IL-7 [6]): 78 ng/ml and 520 pM
pSTAT5 in CCRF-CEM cells, IC50 (IL-7 0.034 ng/ml, 2 pM) (human IL-7 [6]): < 0.15 ng/ml and < 1 pM
pSTAT5 in whole blood (CD4+ T cells), median IC50 (IL-7 1 ng/ml) (human IL-7 [6]): 5.1 ng/ml and 34 pM
Kd (human IL-7 [7]): 0.031 nM and 0.034 nM
koff (human IL-7 [7]): 0.000206 s⁻¹ and 0.000158 s⁻¹
kon (human IL-7 [7]): 6.49e+06 M⁻¹ s⁻¹ and 4.65e+06 M⁻¹ s⁻¹
Kd (cynomolgus monkey IL-7 [8]): 0.053 nM
koff (cynomolgus monkey IL-7 [8]): 0.00017 s⁻¹
kon (cynomolgus monkey IL-7 [8]): 3.17e+06 M⁻¹ s⁻¹
B1: DRSPAI-L7B (antibody, human IgG1, kappa, V domains shown)
VH: B2 VH with L34V, A61S, I64S
VL: B2 VL with Q27E, V29L, D31H, F36Y, V54M, A55G, L58V, S60F, E97V
notes: Human IgG1 kappa; also called DRSPAI-171B; DRSPAI-17B

pSTAT5 in whole blood (CD4+ T cells), median IC50 (human IL-7 [4]): 76 pM and 0.0114 µg/ml
B4: A1294 (antibody, human IgG1, kappa, V domains shown)
VH: B2 VH with S31T, L34V, T53S, A61V, I64S
VL: B2 VL with F36Y, I37M, V54M
